Reference: the DeepSol protein solubility set

Assay: soluble on expression in E. coli; label from the status in PepcDB or PDB records
For “MGSDKIHHHHHHMNIIKSFNSTIDYLETVLDDEIDEKKVTRISGYSYSMFSRLFSILTEMTLSEYLRSRRLTEAAIILRDTDEKIIDVAFKFGYESSDSFGTAFKNFHGFTPSEVRIGKPFKLVSRVQLALSVRGGRSMNIRIQKKKAFTVAGVNQQNINSSICASLWQKLFSKVSHEEMLNLGTGEVVGVCHDILSLDNHDVLDSNTINYMAGYIVTDVDKARSMGLDILEIGETEYAVVELTGSVPECIHNGWKYAMEVFFPEHGYVHSGKPDFEYYYEGDMYSKDYKMELWIPVCKS”, the “soluble on expression in E. coli” value was “not soluble”.
With “MGSDKIHHHHHHMNITASFRDASLVAFDFPEILTRISKIIDALKAHDDSLRYENWMLKGDNQEDATRYHVYDAAGIATPAALAVLREEFRNSKDFTYVAMWDGNLASDNGASISCHVGDKSLPDTLTLRIEGERWKAYAAISGIVSTMVTIFSPALVEVSFDEYAVKQVFDDKPGVGWMLYLPKVITQQQVPEARALIPVPAKGKQTGTIIISVTDAPFSVDNPEHVAIANRIEIRLVDQDLLPAYVDI” the “soluble on expression in E. coli” value was “not soluble”.
For “MGSDKIHHHHHHMNIVSQLSPVTLSPELIARFTAIVGDKHALTDPLELEAYITEERNLYRGHSPLVLRPGSTEEVVAICKLANEARVALVPQGGNTGLVGGQTPHNGEVVISLKRMDKIREIDTSSNTITVEAGAILQRVQEKAAEVDRLFPLSLGAQGSCTIGGNLSTNAGGTAALAYGLARDMALGVEVVLADGRVMNLLSKLKKDNTGYDLRDLFIGAEGTLGIITAATLKLFPKPRAVETAFVGLQSPDDALKLLGIAQGEAAGNLTSFELIAETPLDFSVRHANNRDPLEARYPWYVLIELSSPRDDARAALESILERGFEDGIVVDAAIANSVQQQQAFWKLREEISPAQKPEGGSIKHDISVPVAAVPQFIEQANAAVVALIPGARPVPFGHLGDGNIHYNVSQPVGADKAEFLARWHDVSQVVFEVVLRLGGSISAEHGIGVMKRDELAEVKDKTAIELMRSIKALLDPHGIMNPGKVV”, the “soluble on expression in E. coli” value was “not soluble”.
In the case of “MGSDKIHHHHHHMNKAERQNLIITAIQQNKKMTALELAKYCNVSKRTILRDIDDLENQGVKIYAHYGKNGGYQIQQAQSKIALNLSETQLSALFLVLNESQSYSTLPYKSEINAIIKQCLSLPQTRLRKLLKRMDFYIKFDDTQHMTLPMLFSDILIYCTERNVMLVDHRVDDNIKAENVIFIGLLCKHGHWHAVIYDIAQDKTAELEIENIIDISYSFGKTIQTRDISIDNYHQFLNPIDS”, the “soluble on expression in E. coli” value is reported as “not soluble”.
In the case of “MGSDKIHHHHHHMNKIAPAEIASMLNDWYLAIKKHEVEESSRLFEEVKPLLDDMEEDQEVLAYFSLLELRHKVLLHEARGQGFQHEEPSHMNATSDMLKYYFFLFEGMYEAYKNNYDIAIGLYKDAEQYLDNIPDPIEKAEFHLKVGKLYYKLGQNIVSLNHTRQAVKTFREETDYKKKLASALITMSGNFTEMSQFEEAEAYLDEAIRITSELEDHFFEAQLLHNFGLLHAQSGKSEEAVSKLEEALQNDEYARSAYYYHSAYLLIRELFKIKKKEQALSYYQDVKEKLTAEPNRICEAKIDILYAIYAEGGHAETFHLCKQHMDDLLSEKEYDSVRELSILAGERYRELELYKEAAHFFYEALQIEELIKRTEVI”, the “soluble on expression in E. coli” value is reported as “not soluble”.
For “MGSDKIHHHHHHMNLKTTLGLLAGRSSHFVLSRLGRGSTLPGKVALQFDKDILQNLAKNYEIVVVTGTNGKTLTTALTVGILKEVYGQVLTNPSGANMITGIATTFLTAKSSKTGKNIAVLEIDEASLSRICDYIQPSLFVITNIFRDQMDRFGEIYTTYNMILDAIRKVPTATVLLNGDSPLFYKPTIPNPIEYFGFDLEKGPAQLAHYNTEGILCPDCQGILKYEHNTYANLGAYICEGCGCKRPDLDYRLTKLVELTNNRSRFVIDGQEYGIQIGGLYNIYNALAAVAIARFLGADSQLIKQGFDKSRAVFGRQETFHIGDKECTLVLIKNPVGATQAIEMIKLAPYPFSLSVLLNANYADGIDTSWIWDADFEQITDMDIPEINAGGVRHSEIARRLRVTGYPAEKITETSNLEQVLKTIENQDCKHAYILATYTAMLEFRELLASRQIVRKEMN”, the “soluble on expression in E. coli” value was “not soluble”.
For “MGSDKIHHHHHHMNLNPIINNFQRPIRKVQICCILIFSCAACSLNIPYENQYSDPDAITTVTAARELLASAYDAIPKPEFSLSVLSDDFQPTFLINLNADLNNLYKWHPKPMEDLSNSLWEKYYSAIAIANTVLERIHYVSPISDSDKQELQCIVSEAKTLKAYCYFNLLRLFAPTYPEGPEKDGIILKERFELAFLKRSSISECVNAIRQLLTEAVTVDNRPSQVYWFSRQSAYYLLAALELYAENYDKAEEYALKILSSTNAYNVLAPVHYKKLWEQEPCEECIFSLHTTNSYYTDMNYERKKGDYFTINSTLTQLYTANDIRYEATVYPQEMPGESIGETLPVLYLGKYNKQNWNYKPIQYINKLRVSGICFILAEAYCQDQKGHDALALEVINNYLAQREAPLLDTSLSGAPLLKAILQEKWKEFAGEGERYFDLKRYRKSLLSDWNLSATMKNKPIKPDDYRWLFPIPKGEYLYNENISQNAGWTKVEK”, the “soluble on expression in E. coli” value was “not soluble”.
With “MGSDKIHHHHHHMNLRRLKYFIKIVDVGSLTQAADILHIAQPALSQQLATLEGEVNQKLLIRTKRGVTPTNAGKILYSHAQAILRQCAQAQSAIDRAGGELSGSVSVGLAPGTAAQQLALPLMAEVQRQYPGIVLYFNENFGTTLSELIMNGRMDMAVIYDNRNIHGLRFIPLMKEPLCFVCPNSLMKPKKEITLAEVAQHNLFLPRIYNIMRKIVDEAFIKEGLTYQVKCEIESQTTLNAVLAAGMGCTIMPDSAARSMLNASNAWMAKIIDPDIYASLSFCMSDHLSLSEPAEVVKNILLSLMADRTPDNRPLTLVS” the “soluble on expression in E. coli” value was “not soluble”.
In the case of “MGSDKIHHHHHHMNMNREQLKFCLLGAVFLFGGCTASDPRTHLDSSADTLFQITPDQNHAALERQSGTDQYLKLLLNVAEDAEVKEVQVKPGLVSKDTATLSMPLTDGRTVSFKLSRSDSVASGMVGWVGDMPSNRRQLYPSPAEIDMDPLNWVSLVSDGNLVVGDIRVDGQLYRLTAVGKGQQVLVKVDESKLPPEAAPIPVPVQAQEKTRSLSTSQSRKSTIRVLFVTTHQSRAMFPNYKIELAQALQNANQYLINSKVDAVYELSDIYDSDYDETGKSPQTQLSDMKADKPFGAKIHIEREKGRADLVSMLSTFSIYCGIANLTASVERAFSAISCFGSLGHELGHNMGAGHKDEAPVASLPPYAYGYQHTAPNFHTQMRTSNGAIPYHSNPRLQYQGVPMGTVDKNDVARTFNENRDTVANFYPDPAHRVRLWLYGANRGCFIDLKPGEQALLSWFTECKDNDVNPVRVEVKDFYSGSTPRKLCFANIFYTVNSCYTGSNFSGDFVITSVHTGGGKPEGFKFTRRLIGPVYRVSYE”, the “soluble on expression in E. coli” value is reported as “not soluble”.
With “MGSDKIHHHHHHMNPCGFNKCYIQPSADLSVSLQIVSGKSRASISEIGSHMDSLQIDGLDILLHSYDGSPTHFGSAFLFPYANRVKDARYVMDGVEYRLPNNEGKNSIHGLVLDKNFSVISREEESITMETSIAGGEAYPSDLSVRISHSVDETSYRCEVTVINKGVKRSPIAAGFHPYFVYKNKWAIIKPETAWIMEYDGPFPTGKMDRMTFGDISYLNAYDNQFFADSDIIVDVGYSRLKITRNNMPFFVIYNGRYSAGSSVAIEPMMSAVDSFNNGIGLRLLNPGDTMKFGYSIDIV” the “soluble on expression in E. coli” value was “not soluble”.
In the case of “MGSDKIHHHHHHMNPNIAKISSLLSDPSRSSILLSLMDGRIHPAGELAYLANIKPQTASFHLNKLLEAKLISVEKHGRHRYYRLADSDAANVIEQLLHIAPKAKVKSLKESKEKKDLHFARTCYDHLAGYVGVQMAHSLVEQGMLKKVDLNFEVTSEGALFFSKLGINEEQQRNKRRAFARCCLDWSERQHHIAGALGNALLVRMLEEEWIVRMPKTRAIRITQSGKIAFEKHLNVKI”, the “soluble on expression in E. coli” value is reported as “not soluble”.
For “MGSDKIHHHHHHMNQYERKMLDLLKRGKQELGYVGVKAEFEAEGTRTDELLRLIELARKAGLNVGLKIGGCEAMRDLMESKQYGVEYIIAPMIESGYALSKFIDAKNKVYSKDEQRDTRFLFNVETKSAFGCMDELVQIAAQPGGADGVVFGRVDFSLSMGLTRDDINDPKVTSYCLEVSEACKRSGLDFVVGGGVSMDALSIMKELNSSHLSRFETRKIIFDAAMMENADVHNGLLQAVHFELLWLLNKREYYSCILKEDAKRIEMLERRWHVLSADEKASTSTYVNQPNI”, the “soluble on expression in E. coli” value was “not soluble”.
